According to patent publication US20100003244A1 (TRIGEN, published 2010):
Where “and” joins values, the source holds several entries; their conditions need not be identical. Equal values may be shown once. Values belong to the molecule of their own block, whether it stands above or below them. Ends that are not written are not given here.

Assays:
[1] = biological target: mouse GPVI (mouse) (UniProt P0C191); experiment: cell-based or functional assay
[2] = biological target: T1, GPVI peptide 117 (human); experiment: PepSpot control incubation
T1 sequence (peptide, N-terminus acetylated): SFTNKVFTTETSR

[3] = biological target: T2, GPVI peptide 118 (human); experiment: PepSpot control incubation
T2 sequence (peptide, N-terminus acetylated): TNKVFTTETSRSI

[4] = biological target: T3, GPVI peptide 130 (human); experiment: PepSpot control incubation
T3 sequence (peptide, N-terminus acetylated): GPARQYYTKGNGG

[5] = biological target: T4, GPVI peptide 131 (human); experiment: PepSpot control incubation
T4 sequence (peptide, N-terminus acetylated): ARQYYTKGNGGRE

[6] = biological target: T5, GPVI peptide 32 (human); experiment: PepSpot control incubation
T5 sequence (peptide, N-terminus acetylated): SSSRYQDQAVLFI

[7] = biological target: T6, GPVI peptide 33 (human); experiment: PepSpot control incubation
T6 sequence (peptide, N-terminus acetylated): SRYQDQAVLFIPA

[8] = biological target: T7, GPVI peptide 53 (human); experiment: PepSpot control incubation
T7 sequence (peptide, N-terminus acetylated): LVATGVFAKPSLS

[9] = biological target: T8, GPVI peptide 7 (human); experiment: PepSpot control incubation
T8 sequence (peptide, N-terminus acetylated): LCLGRVPAQSGPL

[10] = biological target: T9, GPVI peptide 11 (human); experiment: PepSpot control incubation
T9 peptide: Ac-QSGPLPKPSLQAL

[11] = biological target: T10, GPVI peptide 37 (human); experiment: PepSpot control incubation
T10 peptide: Ac-LFIPAMKRSLAGR

[12] = biological target: T11, GPVI peptide 54 (human); experiment: PepSpot control incubation
T11 peptide: Ac-ATGVFAKPSLSAQ

[13] = biological target: collagen (type I bovine; BD Bioscience) (bovine) (UniProt P02453); experiment: ELISA, collagen type 1 coated plates, Lineweaver-Burk plot
[14] = biological target: Fc-GPVI-nt (human); experiment: competition ELISA, immobilized collagen
[15] = biological target: T1, GPVI peptide 117 (human); experiment: PepSpot array
[16] = biological target: T2, GPVI peptide 118 (human); experiment: PepSpot array
[17] = biological target: T3, GPVI peptide 130 (human); experiment: PepSpot array
[18] = biological target: T4, GPVI peptide 131 (human); experiment: PepSpot array
[19] = biological target: T5, GPVI peptide 32 (human); experiment: PepSpot array
[20] = biological target: T6, GPVI peptide 33 (human); experiment: PepSpot array
[21] = biological target: T7, GPVI peptide 53 (human); experiment: PepSpot array
[22] = biological target: T8, GPVI peptide 7 (human); experiment: PepSpot array
[23] = biological target: T9, GPVI peptide 11; experiment: PepSpot array
Procedure: (§1) The peptides were synthesized on a cellulose membrane in a stepwise manner resulting in a defined arrangement (peptide array) and are covalently bound to the cellulose membrane. Binding assays were performed directly on the peptide array. In general an antigen peptide array is incubated with blocking buffer for several hours to reduce non-specific binding of proteins or antibodies. It follows the incubation with a primary (antigen peptide-binding) antibody in blocking buffer and an incubation with a horseradish peroxidase (HRP)-labelled secondary antibody, which binds selectively the primary antibody. Alternatively a HRP-labelled primary antibody in blocking buffer can be used.
(§2) A short T(Tween)-TBS-buffer washing directly after the incubation of the antigen peptide array with the secondary protein or antibody or the HRP-labelled primary antibody followed by the first chemiluminescence experiment is made to get an first overview which antigen peptides do bind the primary antibody. Several buffer washing steps follow (T-TBS- and TBS-buffer) to reduce false positive binding (unspecific antibody binding to the cellulose membrane itself). After these washing steps the final chemiluminescence analysis is performed. The data were analysed with an imaging system showing the signal intensity (Light units, LU) as single measurements for each peptide. In order to evaluate non-specific binding of secondary antibodies, incubations using the secondary antibody have to be performed in the absence of the primary antibody as control incubation.

[24] = biological target: T10, GPVI peptide 37; experiment: PepSpot array
Procedure: as §1, §2

[25] = biological target: T11, GPVI peptide 54; experiment: PepSpot array
Procedure: as §1, §2

Sequence of mouse GPVI (mouse) (P0C191 22-313): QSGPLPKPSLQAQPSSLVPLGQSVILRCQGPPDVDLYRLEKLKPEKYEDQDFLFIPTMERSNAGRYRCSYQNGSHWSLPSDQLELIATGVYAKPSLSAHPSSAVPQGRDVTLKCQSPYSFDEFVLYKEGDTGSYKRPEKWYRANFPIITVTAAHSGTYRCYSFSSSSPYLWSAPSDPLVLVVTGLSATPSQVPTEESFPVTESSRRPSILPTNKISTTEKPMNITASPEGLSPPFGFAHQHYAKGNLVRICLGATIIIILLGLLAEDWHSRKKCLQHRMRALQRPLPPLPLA
Sequence of collagen (type I bovine; BD Bioscience) (bovine) (P02453 162-1217, chain 1 of 2): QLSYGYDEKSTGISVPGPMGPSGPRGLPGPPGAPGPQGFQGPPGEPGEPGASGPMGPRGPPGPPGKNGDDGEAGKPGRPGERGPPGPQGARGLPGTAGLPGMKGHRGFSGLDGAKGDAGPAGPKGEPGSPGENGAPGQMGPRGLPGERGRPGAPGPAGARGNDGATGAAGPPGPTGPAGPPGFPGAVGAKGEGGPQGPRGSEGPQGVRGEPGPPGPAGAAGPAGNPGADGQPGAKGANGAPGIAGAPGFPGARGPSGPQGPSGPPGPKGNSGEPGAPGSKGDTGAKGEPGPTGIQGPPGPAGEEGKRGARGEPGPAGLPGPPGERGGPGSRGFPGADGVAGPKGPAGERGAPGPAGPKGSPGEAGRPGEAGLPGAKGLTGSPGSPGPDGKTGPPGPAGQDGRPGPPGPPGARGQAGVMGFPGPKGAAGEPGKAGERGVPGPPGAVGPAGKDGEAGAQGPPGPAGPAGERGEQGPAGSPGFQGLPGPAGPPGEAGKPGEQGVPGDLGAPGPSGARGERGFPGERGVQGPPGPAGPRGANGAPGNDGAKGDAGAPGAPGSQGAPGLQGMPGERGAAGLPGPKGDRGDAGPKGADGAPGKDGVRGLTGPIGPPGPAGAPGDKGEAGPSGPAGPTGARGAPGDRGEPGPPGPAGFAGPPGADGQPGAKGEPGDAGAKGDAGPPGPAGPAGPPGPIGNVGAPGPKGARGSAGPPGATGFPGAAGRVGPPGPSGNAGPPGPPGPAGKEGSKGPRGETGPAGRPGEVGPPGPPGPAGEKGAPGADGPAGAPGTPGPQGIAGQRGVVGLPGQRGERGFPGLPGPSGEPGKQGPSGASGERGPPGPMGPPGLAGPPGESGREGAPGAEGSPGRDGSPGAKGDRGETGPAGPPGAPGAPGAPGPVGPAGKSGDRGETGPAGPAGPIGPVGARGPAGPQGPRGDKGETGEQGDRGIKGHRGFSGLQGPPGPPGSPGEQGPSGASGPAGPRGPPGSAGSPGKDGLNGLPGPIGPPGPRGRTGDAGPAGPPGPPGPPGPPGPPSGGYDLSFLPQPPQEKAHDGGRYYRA
Sequence of collagen (type I bovine; BD Bioscience) (bovine) (P02465 80-1117, chain 2 of 2, further chain): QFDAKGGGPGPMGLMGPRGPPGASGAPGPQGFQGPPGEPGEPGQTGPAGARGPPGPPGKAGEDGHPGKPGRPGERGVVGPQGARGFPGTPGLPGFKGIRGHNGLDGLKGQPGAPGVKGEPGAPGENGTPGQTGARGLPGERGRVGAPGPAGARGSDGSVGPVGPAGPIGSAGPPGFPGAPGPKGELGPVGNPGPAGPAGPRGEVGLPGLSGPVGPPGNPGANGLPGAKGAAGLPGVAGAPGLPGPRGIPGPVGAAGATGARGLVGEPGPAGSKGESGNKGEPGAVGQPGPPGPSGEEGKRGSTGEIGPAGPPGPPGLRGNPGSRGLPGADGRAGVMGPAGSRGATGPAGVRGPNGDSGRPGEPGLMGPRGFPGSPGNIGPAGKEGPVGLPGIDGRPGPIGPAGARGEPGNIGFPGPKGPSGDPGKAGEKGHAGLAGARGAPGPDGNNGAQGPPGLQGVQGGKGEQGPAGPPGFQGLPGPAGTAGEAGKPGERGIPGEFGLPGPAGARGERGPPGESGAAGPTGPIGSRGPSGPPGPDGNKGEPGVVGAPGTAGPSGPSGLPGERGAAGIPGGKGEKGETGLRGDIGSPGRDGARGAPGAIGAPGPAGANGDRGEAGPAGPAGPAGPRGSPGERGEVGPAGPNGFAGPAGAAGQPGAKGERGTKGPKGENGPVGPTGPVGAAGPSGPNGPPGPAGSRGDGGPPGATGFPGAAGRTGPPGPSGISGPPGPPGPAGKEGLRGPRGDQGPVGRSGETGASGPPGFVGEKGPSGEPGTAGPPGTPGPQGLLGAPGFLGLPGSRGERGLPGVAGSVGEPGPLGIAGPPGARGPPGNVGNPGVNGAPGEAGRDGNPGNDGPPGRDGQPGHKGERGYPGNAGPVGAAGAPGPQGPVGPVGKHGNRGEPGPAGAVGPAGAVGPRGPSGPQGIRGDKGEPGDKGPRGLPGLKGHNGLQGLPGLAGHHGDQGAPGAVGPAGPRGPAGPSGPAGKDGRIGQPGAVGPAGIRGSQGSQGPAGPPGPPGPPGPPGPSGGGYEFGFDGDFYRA
Sequence of Fc-GPVI-nt (human) (chain, as listed by the source limits assumed): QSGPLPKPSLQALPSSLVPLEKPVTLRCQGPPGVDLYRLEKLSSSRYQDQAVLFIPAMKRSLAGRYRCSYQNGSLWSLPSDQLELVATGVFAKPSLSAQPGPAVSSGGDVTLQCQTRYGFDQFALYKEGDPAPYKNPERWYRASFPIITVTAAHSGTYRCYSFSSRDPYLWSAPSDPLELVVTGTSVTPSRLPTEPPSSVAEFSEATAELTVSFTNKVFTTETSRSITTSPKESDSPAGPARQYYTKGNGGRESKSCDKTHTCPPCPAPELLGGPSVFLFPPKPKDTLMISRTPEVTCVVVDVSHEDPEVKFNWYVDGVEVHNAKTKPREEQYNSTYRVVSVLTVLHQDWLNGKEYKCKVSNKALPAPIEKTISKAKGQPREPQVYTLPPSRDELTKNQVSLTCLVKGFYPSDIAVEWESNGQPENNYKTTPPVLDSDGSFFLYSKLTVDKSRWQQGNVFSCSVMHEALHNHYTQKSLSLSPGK

- ATP release, mouse platelet-rich plasma [1]: 1.09 nM ATP
- platelet aggregation after stimulation with 2 µg collagen/ml, mouse platelet-rich plasma [1]: 2% and 1.5%
Molecule: JAQ1 (antibody)

- fold lower affinity compared to dimeric Fc-GPVI-nt [13]: 10 fold
Molecule: monomeric GPVI fusion protein (Fc fusion)

Further lines, the molecule ahead of its results:

Molecule: anti-rat-HRP (Sigma A9037) (antibody)
- LU (Light Units) [2]: 377 LU
- LU (Light Units) [3]: 354 LU
- LU (Light Units) [4]: 343 LU
- LU (Light Units) [5]: 389 LU
- LU (Light Units) [6]: 240 LU
- LU (Light Units) [7]: 204 LU
- LU (Light Units) [8]: 240 LU
- LU (Light Units) [9]: 239 LU
- LU (Light Units) [10]: 212 LU
- LU (Light Units) [11]: 280 LU
- LU (Light Units) [12]: 190 LU

Molecule: soluble collagen (ligand)
- concentration required to reduce Fc-GPVI-nt binding to immobilized collagen by more than 50% [14]: 100 µg/mL

B1: monoclonal antibody hGP 5C4 (antibody, V domains shown)
VH: EVKLQESGGGLVQPGRSLKLSCTASGFTFSDYFMSWVRQAPTRGLEWVASISSGGASAYWRDSVKGRFTISRDNAKSALYLQMDSLRSEDTATYFCARGELDFDYWGQGVMVAVSS
VL: ADPNSTLLSASVGDRVTLNCTASQNVYKNLAWYQQKLGEAPRLLLYSANSQTGIPSRFSGSGSGPDFTLTISSLQPEDVASYFCQQYYSGNTFGAGTKLELKR
notes: Monoclonal IgG from Lou/C rats immunized with Fc-GPVI-nt; also called ab 5C4; anti-GPVI mAb 5C4
- LU (Light Units) [15]: 472 LU
- LU (Light Units) [16]: 336 LU
- LU (Light Units) [17]: 255 LU
- LU (Light Units) [18]: 289 LU
- LU (Light Units) [19]: 319 LU
- LU (Light Units) [20]: 259 LU
- LU (Light Units) [21]: 359 LU
- LU (Light Units) [22]: 292 LU
- signal to noise ratio [23]: ~20
- signal to noise ratio [24]: ~4
- signal to noise ratio [25]: ~4
